Publication PMC3386970

Legend:
Test in all cases: SPR; BIAcore 2000. Aaa, N-Aaa and C-Aaa amine-coupled at low density to a C1 chip (149, 96 and 72 pg/mm^2, nearly equimolar). Fg, Fn or Vn injected as analytes at 50 µl/min, 25°C. KD from the kinetics of the initial phases (binding biphasic at higher concentrations).
[1] = target: N-terminal LysM domain of Aaa (6 x His-N-Aaa) (Staphylococcus aureus 4074)
[2] = target: C-terminal CHAP domain of Aaa (6 x His-C-Aaa) (Staphylococcus aureus 4074)
[3] = target: autolysin/adhesin Aaa from Staphylococcus aureus (6 x His-Aaa) (Staphylococcus aureus) (UniProt Q2G0U9)

Sequence of N-terminal LysM domain of Aaa (6 x His-N-Aaa) (Staphylococcus aureus 4074) (P0C1U7 26-214 limits assumed): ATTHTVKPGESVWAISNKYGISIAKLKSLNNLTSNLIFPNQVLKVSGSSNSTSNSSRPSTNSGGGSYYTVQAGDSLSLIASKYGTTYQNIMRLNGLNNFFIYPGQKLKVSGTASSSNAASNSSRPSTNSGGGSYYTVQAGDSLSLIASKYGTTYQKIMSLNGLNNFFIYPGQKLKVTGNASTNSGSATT
Sequence of C-terminal CHAP domain of Aaa (6 x His-C-Aaa) (Staphylococcus aureus 4074) (P0C1U7 215-334 limits assumed): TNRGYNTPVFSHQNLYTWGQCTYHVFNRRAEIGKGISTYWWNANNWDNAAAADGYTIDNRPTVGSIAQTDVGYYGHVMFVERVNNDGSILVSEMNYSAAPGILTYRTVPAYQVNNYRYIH

Substance	Kd [1] [nM]	relative stoichiometry of binding (Aaa : N-Aaa : C-Aaa) [1]	Kd [2] [nM]	relative stoichiometry of binding (Aaa : N-Aaa : C-Aaa) [2]	Kd [3] [nM]	relative stoichiometry of binding (Aaa : N-Aaa : C-Aaa) [3]
fibrinogen (from UniProt P02671 36-866; P02675 45-491; P02679 27-453) (complex)	0.41	2	0.74	1	0.76	4
fibronectin (from UniProt P02751 32-2477) (natural protein)	5.1	1	6.8	1	6	2
vitronectin (natural protein)	18	1	20	1	18	2
